Numbering of substitutions follows the chain as printed.
T1: mouse SIRPA variant hmSIRPA_Δ1 (mouse (with human residues), UniProt P97797 35-513)
T1 construct: FLAG-tagged (pFLAG V5-DEST), on 293α cells
T1 chain: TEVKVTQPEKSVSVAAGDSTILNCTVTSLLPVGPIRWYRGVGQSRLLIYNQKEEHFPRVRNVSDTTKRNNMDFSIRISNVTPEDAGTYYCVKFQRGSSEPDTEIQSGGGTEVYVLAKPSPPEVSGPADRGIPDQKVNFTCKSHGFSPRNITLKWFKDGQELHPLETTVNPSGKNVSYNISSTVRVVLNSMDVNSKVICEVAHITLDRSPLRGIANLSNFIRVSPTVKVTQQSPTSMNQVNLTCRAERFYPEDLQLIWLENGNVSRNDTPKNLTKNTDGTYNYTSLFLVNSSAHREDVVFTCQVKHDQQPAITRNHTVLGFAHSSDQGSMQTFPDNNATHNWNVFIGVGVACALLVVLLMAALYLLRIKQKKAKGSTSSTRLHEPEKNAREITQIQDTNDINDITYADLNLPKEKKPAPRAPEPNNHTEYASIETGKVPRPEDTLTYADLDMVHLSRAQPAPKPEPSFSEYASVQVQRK

T2: mouse SIRPA variant hmSIRPA_Δ2 (mouse (with human residues), UniProt P97797 35-513)
T2 construct: FLAG-tagged (pFLAG V5-DEST), on 293α cells; also called hmSIRPA_Δ42 [sic]
T2 chain: T1 chain with N50S, Q51F, K52T, E54G

T3: mouse SIRPA_C57BL/6 (mouse (C57BL/6), UniProt P97797 32-513)
T3 construct: FLAG-tagged (pFLAG V5-DEST), on 293α cells
T3 sequence: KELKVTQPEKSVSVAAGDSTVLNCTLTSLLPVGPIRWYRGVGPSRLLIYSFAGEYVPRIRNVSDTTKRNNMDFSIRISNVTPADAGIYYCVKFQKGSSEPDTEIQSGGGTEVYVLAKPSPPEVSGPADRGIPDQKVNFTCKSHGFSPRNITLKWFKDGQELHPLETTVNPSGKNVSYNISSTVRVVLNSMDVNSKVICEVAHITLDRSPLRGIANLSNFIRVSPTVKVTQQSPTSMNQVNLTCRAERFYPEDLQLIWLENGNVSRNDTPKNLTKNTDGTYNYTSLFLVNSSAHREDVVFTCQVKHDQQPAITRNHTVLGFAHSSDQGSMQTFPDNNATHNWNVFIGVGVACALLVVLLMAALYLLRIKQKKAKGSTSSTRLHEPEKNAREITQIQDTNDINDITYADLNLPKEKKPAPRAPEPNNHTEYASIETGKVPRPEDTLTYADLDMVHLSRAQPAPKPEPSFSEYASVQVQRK

B1: humanized anti-SIRPA antibody hD13_H1L3 (antibody, human IgG4 S228P, kappa, F234A L235A, V domains shown)
VH: QVQLVESGGGVVQPGRSLRLSCAASGFTFSDYGMIWVRQAPGKGLEWVASISSSSSYIYYADSVKGRFTISRDNSKNRLYLQMNSLRAEDTAVYYCARRYYGFNYPFDYWGQGTMVTVSS
VL: DTQLTQSPSSLSASVGQRVTITCGASKSVRTYMHWYQQKPGKQPKLLIYSASNLEAGVPSRFSGSGSGTDFTLTISSLQPEDFATYYCQQSNEPPYTFGQGTKLEIKR
notes: hH1 heavy chain (IgG4proFALA) and hL3 kappa light chain; also called hD13_HIL3; HIL3 antibody
B2: humanized anti-SIRPA antibody hD13_H2L3 (antibody, human IgG4 S228P, kappa, F234A L235A, V domains shown)
VH: B1 VH with Q1E, R78T
VL: B1 VL
notes: hH2 heavy chain (IgG4proFALA) and hL3 kappa light chain; also called H2L3 antibody
B3: humanized anti-SIRPA antibody hD13_H1L4 (antibody, human IgG4 S228P, kappa, F234A L235A, V domains shown)
VH: B1 VH
VL: DTVLTQSPDSLAVSLGQRATINCGASKSVRTYMHWYQQKPGQQPKLLIYSASNLEAGVPSRFSGSGSGTDFTLTISSLQAEDVAVYYCQQSNEPPYTFGQGTKVEIKR
notes: hH1 heavy chain (IgG4proFALA) and hL4 kappa light chain; also called hD13_HIL4; hD13_HIL4h
B4: humanized anti-SIRPA antibody hD13_H2L2 (antibody, human IgG4 S228P, kappa, F234A L235A, V domains shown)
VH: B1 VH with Q1E, R78T
VL: B1 VL with D1A, T2I, Q43A
notes: hH2 heavy chain (IgG4proFALA) and hL2 kappa light chain; also called H2L2 antibody
B5: human chimeric anti-SIRPA antibody cD13 (antibody, human IgG4 S228P, kappa, F234A L235A, V domains shown)
VH: EVQLVESGGGLVQPGRSLKLSCLASGFTFSDYGMIWVRQAPGKGLEWVASISSSSSYIYYADTVKGRFTISRENAKNTLFLHMTSLRSEDTALYYCARRYYGFNYPFDYWGQGVMVTVSS
VL: DTVLTQSPALAVSLGQRVTISCGASKSVRTYMHWYQQKSGQQPKLLIYSASNLEAGVPSRFSGSGSGTDFTLTIDPVEADDIANYYCQQSNEPPYTFGAGTKLELKR
notes: Human IgG4proFALA heavy chain, human kappa light chain; also called cD13 (IgG4pf); human chimeric antibody D13

Target: T1, mouse SIRPA variant hmSIRPA_Δ1
Assay: cell-based ELISA on 293α cells expressing FLAG-tagged hmSIRPA_Δ1; Abs 490 normalized to FLAG tag [ii]
Protocol: (§1) After the culture supernatant of 293α cells into which the pFLAG V5-DEST-hmSIRPA_Δ0, Δ1, and Δ2 expression vector prepared in 2)-1-2-2 was introduced and the pFLAG V5-DEST-introduced 293α cells was removed, 50 μL per well of four different D13 humanized anti-human SIRPA antibodies and a chimeric anti-human SIRPA antibody diluted with 5% FBS-containing PBS to a final concentration of 10,000 ng/mL were added to these cells, and the mixture was allowed to stand at 4° C. for one hour. Further, 50 μL per well of an anti-FLAG M2 antibody (SIGMA) diluted with 5% FBS-containing PBS to a final concentration of 10,000 ng/mL was added to a well for detecting expression of each SIRPA construct, and the mixture was allowed to stand at 4° C. for one hour. Thereafter, binding to each construct was evaluated in the same manner as in the evaluation of the binding activity of the human SIRPA. Binding of anti-human SIRPA antibodies to each construct was standardized by expression of the FLAG tag.

binding result | Binder
no binding (tested: 10000 ng/mL) | B1
no binding (tested: 10000 ng/mL) | B2
no binding (tested: 10000 ng/mL) | B3
no binding (tested: 10000 ng/mL) | B4
no binding (tested: 10000 ng/mL) | B5

Target: T2, mouse SIRPA variant hmSIRPA_Δ2
Assay: cell-based ELISA on 293α cells expressing FLAG-tagged hmSIRPA_Δ2; Abs 490 normalized to FLAG tag [iii]
Protocol: as §1

binding result | Binder
no binding (tested: 10000 ng/mL) | B1
no binding (tested: 10000 ng/mL) | B2
no binding (tested: 10000 ng/mL) | B3
no binding (tested: 10000 ng/mL) | B4
no binding (tested: 10000 ng/mL) | B5

target: T4, human SIRPA_V1 protein (human, UniProt P78324 31-504); assay: cell-based ELISA on 293α cells expressing FLAG-tagged SIRPA_V1; Abs 490 normalized to FLAG tag [i]
T4 construct: Expressed on 293α cells from pcDNA3.2 V5-DEST or pFLAG V5-DEST (FLAG-tagged) vectors; also called human SIRPA Variant 1; hSIRPA V1
Protocol: (§2) The 293a cells, described in Example 1)-6, were prepared at 5× 10⁵ cells/mL in a 10% FBS-containing DMEM medium. pFLAG V5-DEST-SIRPA_V1-V10, pFLAG V5-DEST-monkey SIRPA, pFLAG V5-DEST-mouse SIRPA, or pFLAG V5-DEST was introduced into the cells using Lipofectamine LTX (Invitrogen), and 100 μL each was aliquoted to a 96-well plate (Corning Incorporated) and cultured overnight in a 10% FBS-containing DMEM medium at 37° C. under a 5% CO₂ condition. The obtained introduced cells were used for cell-based ELISA in a state that they adhered. After the culture supernatant was removed, 50 μL per well of hD13_HIL3, hD13_HIL4h, hD13_H2L2, hD13_H2L3, or cD13 prepared in Examples 6 and 7 or a control antibody was added to each of various SIRPA genes-introduced cells at a final concentration of 0 to 10,000 ng/ml, and the mixture was allowed to stand at 4° C. for one hour. Thereafter, binding to human SIRPA was evaluated in the same manner as in Example 5-1.

T4 sequence (P78324 31-504 limits assumed): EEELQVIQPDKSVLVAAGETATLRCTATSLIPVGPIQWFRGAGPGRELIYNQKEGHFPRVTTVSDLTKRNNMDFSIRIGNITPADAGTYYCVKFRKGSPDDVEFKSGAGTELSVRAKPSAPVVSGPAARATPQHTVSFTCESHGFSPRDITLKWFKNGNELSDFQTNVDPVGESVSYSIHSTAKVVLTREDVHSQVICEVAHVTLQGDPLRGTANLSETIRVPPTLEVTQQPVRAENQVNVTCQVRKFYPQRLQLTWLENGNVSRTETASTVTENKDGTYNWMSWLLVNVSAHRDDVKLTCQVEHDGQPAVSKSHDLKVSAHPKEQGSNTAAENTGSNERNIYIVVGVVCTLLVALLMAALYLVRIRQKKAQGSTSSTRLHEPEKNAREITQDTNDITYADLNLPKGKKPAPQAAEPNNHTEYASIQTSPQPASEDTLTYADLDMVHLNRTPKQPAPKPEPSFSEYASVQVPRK

EC50 (read off the curve) | Binder
~40 ng/mL | B1
~50 ng/mL | B2
~40 ng/mL | B3
~40 ng/mL | B4
~50 ng/mL | B5

target: T3, mouse SIRPA_C57BL/6; assay: cell-based ELISA on 293α cells expressing FLAG-tagged mouse SIRPA (C57BL/6); Abs 490 normalized to FLAG tag [i]
Protocol: as §2

binding result | Binder
no binding (tested: 10000 ng/mL) | B1
no binding (tested: 10000 ng/mL) | B2
no binding (tested: 10000 ng/mL) | B3
no binding (tested: 10000 ng/mL) | B4
no binding (tested: 10000 ng/mL) | B5
